Measurements as given in the DeepSol protein solubility set.

assay: soluble on expression in E. coli; label from the status in PepcDB or PDB records

Sequence	soluble on expression in E. coli
MKTIKDWQINICLATYNGQKYLRQQLDSIIQQGYTDWICLIRDDGSTDDTVAIIKEYVNRDSRFIFINSNDDRKLGSHRSFYELVNYKKADFYVFSDQDDVWKENRLERYLEEAEKFNQELPLLVYSNWTSVDEKLTVLKEHNPATVIQEQIAFNQINGMVIMMNHELAKLWEYRQIGAHDSYVGTLAYAVGNVAYISDSTVLWRRQVGAESLNNYGRQYGVATFWQMINTSFDRASLIFAQVSDKMSLERKLFFSRFIELKNANLMRRIYLLSKLKLRRKSLKETVAMTILLLTGYGKPKALEHHHHHH	soluble
MKTIRTEEAVGLPLSHDITRIDYGKTKEVCFKKGHIVVQEDIPILLSLGKKHLFVSLDPAEIHEEEAATFLYNLLTDDSCQPSEVHEGKIVAKASTRGLLKVNREKLIALNEIEGLALSTKVTNIEVQKDEKVAAFRVIPLTISKSQLEKARQLSTSEPLISVKPFKKIRVGIVTTGSEVYTGLVEDAFYPVLKAKFSAYPLVTIVKQEIVDDQPQKITVAIKKMLAQGVDLIVCTGGMSVDPDDLTPLAIKQTGAEIVTHGTPVLPGSMFLLAYKGEQTIIGLPGGVLFSEKTVFDLLLPRLMAKEVIKKSEIIDLSYGGYL	not soluble
MKTKFYDYQGEHLILYFAGWGTPPDAVNHLILPENHDLLICYDYQDLNLDFDLSAYRHIRLVAWSMGVWVAERVLQGIRLKSATAVNGTGLPCDDSFGIPYAIFKGTLENLTENTRLKFERRICGDKASFERYQLFPARPFDEIHQELTALFAMIQQDKRIDLIHWANAWVSSRDKIFTPANQHQYWALRCAVQEIEGEHYVFSRFTHWSALWDH	not soluble
MKTKNKILHANCLQLGGKGLLIIGPSGSGKSTLTLSLLDRAGWSKREAKLISDDYTMLRVENGKLQGSTPEGLQGGIEIRGVGLYTIEFEKQTTIDCVILLGPEYERFSTNQTFKFADLHIPLLKLPSLHEADCTAICQAIEAFFFRKVWLKSV	not soluble
MKTPNAQEAEGQQTRAAAGRATGSANMTKKKVSQKKQRGRPSSQPRRNIVGCRISHGWKEGDEPITQWKGTVLDQVPINPSLYLVKYDGIDCVYGLELHRDERVLSLKILSDRVASSHISDANLANTIIGKAVEHMFEGEHGSKDEWRGMVLAQAPIMKAWFYITYEKDPVLYMYQLLDDYKEGDLRIMPESSESPPTEREPGGVVDGLIGKHVEYTKEDGSKRIGMVIHQVEAKPSVYFIKFDDDFHIYVYDLVKKS	soluble
MKTRINYAKASPEAFKAVMALENYVQSSGLEHRFIHLIKLRASIINGCAFCVDMHVKESRHDGLSEQWINLMSVWRESPVYTEQERALLGWVDAVTKIAETGAPDDAFETLRAHFSDEEIVKITVAIGAINTWNRIAVGFRSQHPVEAAAKAA	soluble
MKTSYDDTRQHLLDTGYRIMAVKGFSGVGLNEILQSAGVPKGSFYHYFKSKEQFGQALLEDYFRVYLADMDQRFSAPGLNARERLMSYWQKWLDNACPPCDEQRCLVVKLSAEVADLSESMRITLRDGSDGIIERLVGCLGQGRDDGSLAPCDARHMASALYQLWLGASLLSKLHRSPGPLETAMQTTRSLLEI	soluble
MKTTTQELKQYITRLFQLSNNETWECEALEEAAENILPERFINNSLLAHLTLNTYTYYNDELHELSIYPFLMYANDQLISIGYLDHFDMDFLYLTDTKNTLIDERHLLKQGGNHHELEHHHHHH	soluble
MKTWLPTSTAGSLPKPSWLAQPETLWSPWKLSSEELLAGKRDALRLSLDDQLRAGIDIVSDGEQTRQHFVTTFIEHLSGVDFAKREIVKIRNRYEASVPTVVGAVERQKPVFVEDARYLRQLTSQPIKWALPGPMTMIDTLYDNHYKSREKLAWEFAKILNQEAKELEAAGVDIIQFDEPAFNVFFDEVNDWGIAALERATEGLKCETAVHICYGYGIKANTDWKKTLGSEWRQYEEAFPQLQKSSLDIISLECHNSRVPMDLLELIRGKKVMVGAIDVASHAIETPEEVAGTLRKALAFVDADKLYPSTNCGMAPLPRHVATGKLHALSAGAEIIRRELAAK	not soluble
MKVAIVHNSEEKSKQVTKQLTTLLEQNQIQIDNRQPELVISVGGDGTLLSAFHRFNHLLNEVSFLGVHTGHLGFYTDWRDYELKELVESLCIHREKSTSYPLLDVRIRFRDGKPDKHFLALNESTIKRGNRTMVGDVFIKDELFERFRGDGLSISTPTGSTAYNKSIGGAVLHPSINAFQLTEIASLNNRVFRTLGSPIVIAHTEWLEIKLQESDDYFVTVDQLDIYQENIASVCYRIADERIHFASYRHMHFWHRVKDAFIGED	not soluble
MKVALGGTFEPLHEGHKKLIDVAIKLGGRDITIGVTSDRMARARIRSVLPFAIRAENVKRYVMRKYGFEPEIVKITNPYGKTLDVDFEYLVVSPETYEMALKINQKREELGKRKITIVKVDWMMAEDGKPISSTRIKRGEIDRYGGII	soluble
MKVGYLGPAATFTHLAVSSCFQNGAEHVAYRTIPECIDAAVAGEVDFAFVPLENALEGSVNLTIDYLIHEQPLPIVGEMTLPIHQHLLVHPSRENAWKELDKIYSHSHAIAQCHKFLHRHFPSVPYEYANSTGAAAKFVSDHPELNIGVIANDMAASTYELKIVKRDIQDYRDNHTRFVILSPDENISFEVNSKLSSRPKTTLMVMLPQDDQSGALHRVLSAFSWRNLNLSKIESRPTKTGLGHYFFIIDIEKAFDDVLIPGAMQELEALGCKVRLLGAYQSYQLMAGDPLEHHHHHH	not soluble
MKVIIIGGETTAYYLARSMLSRKYGVVIINKDRELCEEFAKKLKATIIHGDGSHKEILRDAEVSKNDVVVILTPRDEVNLFIAQLVMKDFGVKRVVSLVNDPGNMEIFKKMGITTVLNLTTLITNTVEALIFPDEFSSIIPLEQGIEFLSVNVEEDSPVVGKKLKDLPLPRDSIIAAIVRGGVLVVPRGDTEILSGDKLYVIVSAEAKETVEETLLGR	soluble
MKVIVVGCTHAGTFAVKQTIADHPDADVTAYEMNDNISFLSCGIALYLGKEIKNNDPRGLFYSSPEELSNLGANVQMRHQVTNVDPETKTIKVKDLITNEEKTEAYDKLIMTTGSKPTVPPIPGIDSSRVYLCKNYNDAKKLFEEAPKAKTITIIGSGYIGAELAEAYSNQNYNVNLIDGHERVLYKYFDKEFTDILAKDYEAHGVNLVLGSKVAAFEEVDDEIITKTLDGKEIKSDIAILCIGFRPNTELLKGKVAMLDNGAIITDEYMHSSNRDIFAAGDSAAVHYNPTNSNAYIPLATNAVRQGRLVGLNLTEDKVKDMGTQSSSGLKLYGRTYVSTGINTALAKANNLKVSEVIIADNYRPEFMLSTDEVLMSLVYDPKTRVILGGALSSMHDVSQSANVLSVCIQNKNTIDDLAMVDMLFQPQFDRPFNYLNILGQAAQAQADKAHK	soluble
MKVLDSRDFAKVKAIAIERASYRNIGALAVYIGSMTGMRISEVLALTWPDIDTKLCVIHVTRSWDHLYGTGFKPTKTDSSVRDIEISPSVIELLNKIHQEQAASYLRTGYRDEDQMIMRDPRHNVITDSACNKALHVIQNKAGIPEDKQITFHGLRHSHVSYLISKGVDIYYISKRLGHSDVTITMKVYGHLLDSQRKQEAHKAVLFMDQILEHHHHHH	not soluble
MKVPRLIVAGTESGAGKTTITISIILKLLANQMKVKPYKIGPDYIDPQFHRLASGVPSENLDLWMMNDDQIRYLLIEGSREFDISVIEGVMGLFDGAGSDFTGSTYDLARRTGTPIVLVIDGYGISATAAAIVSGIKAYAGELLRGVIVTRVSGESHYRLIRDAVEEKTGVPVLGYMIRNEKAVLESRHLGLVQAYEIDEIREIFGAIDSSTVIDMHQIIDIARSADKLETLYSPEIERLGTFKVSVAMDSAFDFYYEENLRMLKRMGASIRYFSPMGNEVPDADSDLIYLGGGYPEVFAGKLQSATDTIEAIRHAASIGTGVYAECGGYMFLCRSLESTDGHIYGGVGIIPASVYMDASLVIGYREISAKRDTSILRAGETARGHEFHKSRIRFDGPYDHPFVLKSRSSSFEDGFSSGSVTATYAHIHFLSNPRVAENLLIALEHHHHHH	not soluble
MKVRADFAFEKVARDWFVRWSKGRSEKYAGQVMRNFERWVFPAIGNLDIRQVRTADVVGCLRVMEARGIVDTLRKTKNSLKMVFAFAVGSGMMEINPVAQIGSGVFERLEHHHHHH	soluble
